Patent publication US20260274955A1 (JANUX THERAPEUTICS, published 2026)

Tests used:
[1] = target: T1, anti-CD28 Fab (SEQ ID NOs: 202, 203); experiment: phage binding ELISA on captured biotinylated Fab;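 note: clonal phage supernatants added to wells preincubated with CD28 antigen or blocking buffer only, bound phage detected by ELISA with horseradish-conjugated anti-M13 antibody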
T1 construct: biotinylated and captured on neutravidin coated plates in the phage ELISA
Protocol: After panning, phage infected bacteria were plated out and colonies picked into 96 well blocks. Clonal phage was then amplified and separated from bacterial cells via centrifugation.
Clonal phage were harvested as crude supernatants and screened via standard ELISAs. […] Prior to the addition of clonal phage, wells were incubated with blocking buffer and CD28 antigen or blocking buffer alone. Without washing or aspirating, clonal phage supernatants were then added to the wells and incubated for a short time. Wells were then washed followed by detection of bound phage using a horse radish conjugated anti-M13 antibody. Clonal phage of interest were then sent for sequence analysis.

[2] = target: T2, Anti-CD28 Fab (SEQ ID NOs: 202, 203); experiment: phage ELISA on captured biotinylated Fab;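 note: wells preblocked with or without CD28 antigen, then clonal phage supernatant added briefly, washed, and bound phage read out by ELISA using HRP-linked anti-M13 antibody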
T2 construct: biotinylated and captured on neutravidin coated plates in the phage ELISA
Protocol: (§1) Clonal phage were harvested as crude supernatants and screened via standard ELISAs. […] Prior to the addition of clonal phage, wells were incubated with blocking buffer and CD28 antigen or blocking buffer alone. Without washing or aspirating, clonal phage supernatants were then added to the wells and incubated for a short time. Wells were then washed followed by detection of bound phage using a horse radish conjugated anti-M13 antibody.

[3] = target: T2, Anti-CD28 Fab (SEQ ID NOs: 202, 203); experiment: phage ELISA on captured Fab, wells pre-incubated with CD28 antigen (competitor: CD28);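 note: bound clonal phage detected with an HRP-linked anti-M13 antibody, compared against wells that received blocking buffer alone without CD28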
Protocol: as §1

T2 sequence (VH, as listed by the source, chain 1 of 2): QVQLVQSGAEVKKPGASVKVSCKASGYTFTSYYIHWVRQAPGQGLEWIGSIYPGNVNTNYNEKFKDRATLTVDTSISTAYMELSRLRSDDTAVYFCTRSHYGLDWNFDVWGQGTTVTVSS
T2 sequence (VL, as listed by the source, chain 2 of 2): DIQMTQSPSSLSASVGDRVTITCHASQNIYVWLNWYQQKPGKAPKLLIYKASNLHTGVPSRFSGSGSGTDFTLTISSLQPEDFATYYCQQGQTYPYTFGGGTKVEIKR
T1 sequence (VH, as listed by the source, chain 1 of 2): as the sequence (VH, as listed by the source, chain 1 of 2) above
T1 sequence (VL, as listed by the source, chain 2 of 2): as the sequence (VL, as listed by the source, chain 2 of 2) above

Binder | Anti-CD28 Fab (SEQ ID NOs: 202, 203) signal [1] | Anti-CD28 Fab signal [2] | Anti-CD28 Fab signal in the presence of CD28 [3]
TCSAGATYVWPQCF [Phage-956] | 2.05 |  | 
TCSAGFHYEWPRCL [Phage-963] | 2.02 |  | 
SCSAGAMYTWPTCL [Phage-950] | 2.09 |  | 
TCAAGASYAWPWCL [Phage-960] | 2.03 |  | 
YCDGHKAEYMDKCL [Phage-150] |  | 2.2 | 0.07
TCAAGAHYTWPECF [Phage-972] | 1.99 |  | 
TCSAGAYYTWPYCF [Phage-948] | 2.09 |  | 
TCAAGAMWAWPVCL [Phage-911] | 2.32 |  | 
TCAAGAMWHWPVCL [Phage-962] | 2.03 |  | 
TCSAGATYAWPFCL [Phage-913] | 2.31 |  | 
MCAEFFNYPWPLCL [Phage-946] | 2.11 |  | 
LCAEFFNYPWPLCL [Phage-975] | 1.98 |  | 
SCSAGAAYYWPWCL [Phage-901] | 1.9 |  | 
SCKPGVANYWPWCL [Phage-917] | 2.29 |  | 
LCSAGAMYPWPTCL [Phage-922] | 2.25 |  | 
LCSAGAMWPWPTCL [Phage-908] | 2.39 |  | 
MCSAGAMYPWPTCL [Phage-959] | 2.04 |  | 
LCSAGAMYSWPTCL [Phage-909] | 2.39 |  | 
MCSAGANYPWPWCL [Phage-979] | 1.97 |  | 
YCDGHLPEYLPKCL [Phage-153] |  | 2.19 | 0.09
YCDGHLPEYLSKCL [Phage-155] |  | 2.19 | 0.07

Binder | Anti-CD28 Fab (SEQ ID NOs: 202, 203) signal [1] | Anti-CD28 Fab signal [2] | Anti-CD28 Fab signal in the presence of CD28 [3]
YCDGHMPEYIAKCL [Phage-154] |  | 2.19 | 0.08
TCAAGAHYSWPACF [Phage-923] | 2.25 |  | 
TCSAGATWSWPMCL [Phage-921] | 2.26 |  | 
SCAAGATYSWPMCL [Phage-974] | 1.99 |  | 
TCSAGATWTWPQCL [Phage-944] | 2.14 |  | 
TCAAGANYPWPYCL [Phage-969] | 1.99 |  | 
LCEEFADYPWPMCL [Phage-965] | 2.01 |  | 
TCAAGAMYTWPLCF [Phage-943] | 2.14 |  | 
MCSAGAMYKWPLCL [Phage-912] | 2.32 |  | 
MCSAGAMYSWPLCL [Phage-918] | 2.29 |  | 
TCSAGATWAWPLCF [Phage-902] | 2.31 |  | 
SCAAGAMWPWPVCV [Phage-915] | 2.29 |  | 
TCAAGATYLWPTCL [Phage-903] | 1.68 |  | 
TCKAGATYLWPFCL [Phage-926] | 2.23 |  | 
MCAAGANYPWPQCL [Phage-920] | 2.28 |  | 
TCSAGATYEWPWCM [Phage-978] | 1.97 |  | 
TCAAGATYEWPACL [Phage-947] | 2.09 |  | 
TCAAGATYKWPACL [Phage-958] | 2.05 |  | 
TCAAVFSYGWPECF [Phage-949] | 2.09 |  | 
TCAAGATYSWPMCF [Phage-966] | 2 |  | 
TCAAGATYSWPWCF [Phage-971] | 1.99 |  | 

Binder | Anti-CD28 Fab (SEQ ID NOs: 202, 203) signal [1] | Anti-CD28 Fab signal [2] | Anti-CD28 Fab signal in the presence of CD28 [3]
WCKPGAPYKWPPCF [Phage-942] | 2.14 |  | 
RCAAGASYPWPPCL [Phage-925] | 2.25 |  | 
TCSAGAHYPWPICL [Phage-900] | 1.78 |  | 
YCDGHAPEYMLKCL [Phage-151] |  | 2.2 | 0.07
YCDGHMPEYMLKCL [Phage-199] |  | 2.11 | 0.09
YCDGHAPQYMLKCL [Phage-194] |  | 2.12 | 0.09
YCDGHAPDYMLKCL [Phage-152] |  | 2.2 | 0.09
YCDGHAPQYMGKCL [Phage-227] |  | 2.06 | 0.08
YCDGHMPEYMEKCL [Phage-292] |  | 1.93 | 0.09
YCMGHAPEYMEKCL [Phage-290] |  | 1.93 | 0.07
TCAAGATYAWPECL [Phage-953] | 2.08 |  | 
QCAAGASYPWPMCL [Phage-951] | 2.08 |  | 
TCAAGATYPWPSCL [Phage-924] | 2.25 |  | 
GCAAGATYPWPSCL [Phage-957] | 2.05 |  | 
TCSAGASWAWPWCF [Phage-961] | 2.03 |  | 
QCSAGAAWPWPFCL [Phage-976] | 1.97 |  | 
MCAAGAHYTWPTCL [Phage-977] | 1.97 |  | 
SCAAVFSYSWPMCF [Phage-973] | 1.99 |  | 
TCAAGAHYPWPACL [Phage-904] | 1.92 |  | 
HCAAGAHYPWPACL [Phage-968] | 2 |  | 
TCAAGAHYLWPWCM [Phage-955] | 2.05 |  | 
